In assay [1] the target is T1, CD27 expressed on the cell surface (HT1080_CD27 cells) (human, UniProt P26842 20-260).
T1 sequence (looked up): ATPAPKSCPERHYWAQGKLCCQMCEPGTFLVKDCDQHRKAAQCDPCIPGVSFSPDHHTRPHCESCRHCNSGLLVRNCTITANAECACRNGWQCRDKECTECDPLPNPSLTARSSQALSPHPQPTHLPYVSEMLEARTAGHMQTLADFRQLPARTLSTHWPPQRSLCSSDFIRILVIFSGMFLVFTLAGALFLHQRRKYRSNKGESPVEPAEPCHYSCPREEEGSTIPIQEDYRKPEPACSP
In words: cell-based or functional assay.

Assay [2] concerns the target T2, CD27 protein (His-tagged, Sino Biological Inc. 10039-H08B1) (human, UniProt P26842 20-192).
T2 construct: bought; coated onto ELISA plates; also called human CD27; recombinant protein; not shown: His tag
T2 sequence (looked up): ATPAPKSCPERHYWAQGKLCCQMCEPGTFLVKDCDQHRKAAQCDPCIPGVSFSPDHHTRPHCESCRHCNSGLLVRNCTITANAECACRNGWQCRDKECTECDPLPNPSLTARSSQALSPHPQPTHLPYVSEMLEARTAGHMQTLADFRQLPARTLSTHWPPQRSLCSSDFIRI
The experiment in a line: ELISA on coated His-tagged CD27.

Assay [3] concerns the target T1, CD27 expressed on the cell surface …. The experiment in a line: cellular binding assay, HT1080_CD27 cells.

The text below walks through data of US20210253725A1 (BIONTECH, published 2021).
Further: test concentration or dose not given here.

B1: P018.S.03.A.H02 (antibody, V domains shown)
VH: QSLEESGGRLMTPGGSLTLTCTVSGFSLSDYNMQWVRQAPGEGLEWIGIISLGGTTDYANWVKGRFTISKTSTTVDLKMTSLTASDTATYFCARDPAGGNWAELDLWGQGTLVTVSS
VL: DIVMTQTPASVSEPVGGTVTIKCQASQSISSWLSWFQQKPGQPPKLLIYDASTLASGVPSRFKGSGSGTEFTLTISDLESADAATYYCQQGSTISNVDNAFGGGTEVVVK
notes: V regions on human Ig constant parts; also called AB27_60
With B1, in assay [1], the “IL-8, cross-linked by F(ab')2 fragment [abs. corr.]” value (“IL-8, cross-linked” for short) was found to be 1.07 abs. corr and the “IL-8 [abs. corr.]” value was determined as 0.13 abs. corr. For the same molecule, the “ELISA [abs. corr.]” value in assay [2] came to 3.15 abs. corr. The “Cellular binding assay [RFU]” value in assay [3] was 395 RFU.

B2: P018.S.10.A.B01 (antibody, V domains shown)
VH: QSLEESGGRLVTPGTPLTLTCTASGFSLSSYYMSWVRQAPGKGLEWIGIIDRAGTTYYATWAKGRFTISRTSTTVDLKMTSPTTEDTGTYFCARNFIYGVGTYYGSDLWGQGTLVTVSS
VL: DVVMTQTPASVSDPVGGTVTIKCQASESISRRLAWYQQKPGQPPKLLIYGASDLASGVPSRFSGSGSGTEFTLTISGVQSDDAATYYCQDTDYGSGHLGAFGGGTEVVVK
notes: V regions on human Ig constant parts; also called AB27_166
In the case of B2, in assay [1], the “IL-8, cross-linked” value came out at 1.04 abs. corr and the “IL-8 [abs. corr.]” value came out at 0.08 abs. corr. For the same molecule, the “ELISA [abs. corr.]” value in assay [2] stood at 3.19 abs. corr. For the same molecule, in assay [3], the “Cellular binding assay [RFU]” value was determined as 333 RFU.

B3: P018.S.01.A.G06 (antibody, V domains shown)
VH: QSLEESGGGLFKPTDTLTLTCTVSGIDLSRYAMGWVRQAPGKGLEYIGIISVGGGTYYANWIKGRFTISSTSTTVDLKITSPTTEDTATYFCARSPYASTSASAFNLWGPGTLVTVSS
VL: AFELTQTPSSVEAAVGGTVTIKCQASQSIYSYLSWYQQKPGQPPKLLIYEASKLASGVPSRFSGSGSGTQFTLTISDLESADAATYYCQSYSNTNTNTFGGGTEVVVK
notes: V regions on human Ig constant parts; also called AB27_24
For the molecule B3, in assay [1], the “IL-8, cross-linked” value was determined as 1.09 abs. corr and the “IL-8 [abs. corr.]” value was 0.491 abs. corr. The “ELISA [abs. corr.]” value in assay [2] is 3.17 abs. corr. In assay [3], the “Cellular binding assay [RFU]” value amounted to 313 RFU.

B4: P018.S.09.A.A05 (antibody, V domains shown)
VH: QSVEESGGRLVTPGTPLTLTCTVSGFSLSSYAMSWVRQAPGKGLEWIGYIWSGGTTDYASWAKGRFTISKTSTTVDLKITDPTTEDTATYFCARGLGDRGSSDYYMPLKLWGQGTLVTVSS
VL: AAVLTQTPSPVSAAVGGTVTINCQASEDIESYLAWYQQKPGQPPKLLIYSTSNLASGVSSRFRGSGSGTQLTLTISDLESADAATYYCQCTYDGSSAVWGAFGGGTEVVVK
notes: V regions on human Ig constant parts; also called AB27_145
Take B4: in assay [1], the “IL-8, cross-linked” value amounted to 1.95 abs. corr and the “IL-8 [abs. corr.]” value was found to be 0.504 abs. corr. In assay [2], the “ELISA [abs. corr.]” value is 3.17 abs. corr. Also, the “Cellular binding assay [RFU]” value in assay [3] is 214 RFU.

B5: P018.S.04.A.E02 (antibody, V domains shown)
VH: QSVEESGGRLVTPGTPLTLTCTVSGFSLNNYDMNWVRQAPGKGLEWVGYIDTGGSAYYASWVNGRFTISKTSTTVELKMTSLTASDTATYFCARGYTHGYLWGQGTLVTVSS
VL: ALVMTQTPSSVSAAVGGTVTINCQASQNVYNNLAWYQQKPGQPPKLLIDSASTLASGVSSRFKGSGSGTEFTLTISDLESADAATYYCQSADWESSNFFWAFGGGTEVVVK
notes: V regions on human Ig constant parts; also called AB27_74
Turning to B5, in assay [1], the “IL-8, cross-linked” value worked out at 1.91 abs. corr and the “IL-8 [abs. corr.]” value was found to be 0.676 abs. corr. Also, in assay [2], the “ELISA [abs. corr.]” value amounted to 3.52 abs. corr. Moreover, the “Cellular binding assay [RFU]” value in assay [3] was 463 RFU.

B6: P018.S.08.A.A01 (antibody, V domains shown)
VH: QSVEESGGRLVTPGTPLTLTCTVSGFSLNNYDMNWVRQAPGKGLEWVGYIDTGGSAYYANWVNGRFTISKTSTTVELKMTSLTASDTATYFCARGYIHGYLWGQGTLVTVSS
VL: ALVMTQTPSSVSAAVGGTVTINCQASQNVYNNLAWYQQRPGQPPELLIDSASTLASGVSSRFKGSGSGTEFTLTISDLESADAATYYCQSADWESSNFFWAFGGGTEVVVK
notes: V regions on human Ig constant parts; also called AB27_135
As to B6, in assay [1], the “IL-8, cross-linked” value was determined as 1.57 abs. corr and the “IL-8 [abs. corr.]” value was found to be 0.876 abs. corr. The “ELISA [abs. corr.]” value in assay [2] was 3.42 abs. corr. In addition, the “Cellular binding assay [RFU]” value in assay [3] amounted to 448 RFU.

B7: P018.S.04.A.C05 (antibody, V domains shown)
VH: QSVEESGGRLVTPGTPLTLTCTVSGFSLNYYSMAWVRQVPGEGLEWIGTINTGGGTYYASWAKGRFTISKTSTTVDLKMTSLTAADTATYFCARSDGTGITYYNLWGQGALVTVSS
VL: ALVMTQTASPVSAAVGGTVTINCQASETIYSNLAWYQQKQGQPPKLLIYRASNLASGVPSRFSGSESGTQFTLTISGVQSDDAATYYCQGYYNTGITGFGGGTEVVVK
notes: V regions on human Ig constant parts; also called AB27_70
Consider B7, for which, in assay [1], the “IL-8, cross-linked” value was found to be 1.43 abs. corr and the “IL-8 [abs. corr.]” value was 0.382 abs. corr. Further, the “ELISA [abs. corr.]” value in assay [2] is 3.17 abs. corr. In assay [3], the “Cellular binding assay [RFU]” value worked out at 292 RFU.

B8: P018.S.09.A.A03 (antibody, V domains shown)
VH: QEQLVESGGGLVQPEGSLTLTCTASGFSFSSSYYMCWVRQAPGKGPEWIACIYTYSGDTDYANWAKGRFTISKTSSTTVTLQMTSLTAADTATYFCAKAGYGGYGYPIFNLWGPGTLVTVSS
VL: AFELTQTPSSVEAAVGGTVTIKCQASQSIGSSLAWYQQKPGQRPKLLMYYVSTLASGVSSRFKGSGSGTEFTLTISDLESADAATYYCQSYYGSGTTVFWAFGGGTEVVVK
notes: V regions on human Ig constant parts; also called AB27_144
Consider B8, for which, in assay [1], the “IL-8, cross-linked” value was found to be 1.54 abs. corr and the “IL-8 [abs. corr.]” value came out at 0.263 abs. corr. Further, the “ELISA [abs. corr.]” value in assay [2] amounted to 3.16 abs. corr. For the same molecule, the “Cellular binding assay [RFU]” value in assay [3] turned out to be 360 RFU.

B9: P018.S.10.A.E04 (antibody, V domains shown)
VH: QSLEESGGDLVKPGASLTLTCTASGFSFSSSYWICWVRQAPGKGLEWVACISAPGSGSTFDASWAKGRFTISKTSSTTVTLQMTSLTAADTATYFCARFYAGGSGDYFDLWGPGTLVTVSS
VL: QIVMTQTPSSTSEPVGGTVSIKCQASQNIGSYLAWYQQKPGQPPKVLIYTTSDLASGVPSRFKGSGSGTQFTLTISDLESDDAATYYCLGVYGYSSDDVAFGGGTEVVVK
notes: V regions on human Ig constant parts; also called AB27_177
On to B9, for which, in assay [1], the “IL-8, cross-linked” value turned out to be 2.29 abs. corr and the “IL-8 [abs. corr.]” value stood at 0.339 abs. corr. Besides, the “ELISA [abs. corr.]” value in assay [2] was determined as 3.15 abs. corr. Moreover, the “Cellular binding assay [RFU]” value in assay [3] came to 280 RFU.

B10: P018.S.03.A.H03 (antibody, V domains shown)
VH: QSLEESGGDLVKPEGSLTLTCTASGLDFSSSYWICWVRQAPGKGLEWIACIHAGSSGTTHYATWAKGRFTISKTSSTTVTLQMTSLTAADTATYFCARGAVYGGGSYDNFNLWGPGTLVTVSS
VL: AYDMTQTPASVEVAVGGTVTIKCQASQSIGTYLSWYQQKPGQPPKLLIYAASTLASGVQPRFKGSGSGTQFTLTISGVQSDDAATYYCQQGYSADNVANSFGGGTEVVVK
notes: V regions on human Ig constant parts; also called AB27_61
Consider B10, for which, in assay [1], the “IL-8, cross-linked” value is 1.09 abs. corr and the “IL-8 [abs. corr.]” value was found to be 0.588 abs. corr. For the same molecule, the “ELISA [abs. corr.]” value in assay [2] is 3.15 abs. corr. The “Cellular binding assay [RFU]” value in assay [3] worked out at 289 RFU.

B11: P018.S.06.A.E04 (antibody, V domains shown)
VH: QEQLEESGGDLVQPEGSLTLTCTVSGFSFDSNYWICWVRQAPGKGPEWIACIMTGDGSIYYATWAKGRFTISKTSSTTVTLQMTSLTAADTATYFCARGYDGIHGGDNYGHVFNLWGPGTLVTVSS
VL: AFELTQTPFSVSAVVGGTVTINCQASENIYTLLAWYQQKSGQPPKLLIYRASTLTSGVPSRFKGSGSGTQFTLTISDLESADAATYYCQGYYVDSGNTFGGGTEVVVK
notes: V regions on human Ig constant parts; also called AB27_106
Consider B11, for which, in assay [1], the “IL-8, cross-linked” value was 1.22 abs. corr and the “IL-8 [abs. corr.]” value came out at 0.327 abs. corr. In addition, the “ELISA [abs. corr.]” value in assay [2] is 3.16 abs. corr. Besides, the “Cellular binding assay [RFU]” value in assay [3] came out at 281 RFU.

B12: P018.S.06.A.F06 (antibody, V domains shown)
VH: QSVEESGGRLVTPGTPLTLTCAASGFSLNSYVMSWVRQAPGKGLEWIGYIDYGGAPYYASWAKGRFTISKTSTTVELKITSPTIEDTGTYFCARGGYGGYVLVTALWGPGTLVTVSS
VL: DIVMTQTPASVSEPVGGTVTIKCQASENIYSYLAWYQQKPGQPPKLLIYQASTLASGVSSRFKGSGSGTQFTLTISDLESADAATYYCQTYYGGSTYGNGFGGGTEVVVE
notes: V regions on human Ig constant parts; also called AB27_110
For B12, in assay [1], the “IL-8, cross-linked” value is 1.03 abs. corr and the “IL-8 [abs. corr.]” value came out at 0.7 abs. corr. Also, the “ELISA [abs. corr.]” value in assay [2] is 3.17 abs. corr. In assay [3], the “Cellular binding assay [RFU]” value was found to be 326 RFU.

B13: P018.S.06.A.F03 (antibody, V domains shown)
VH: QSLEESGGDLVRPGASLTLTCTASGLSFSDRYWISWVRQAPGKGLEWIASIYTGSDGVADYATWAKGRVTISKTSSTTVTLQMTSLTAADTATYFCARDREYGSNTGVYSLWGPGTLVTVSS
VL: DVLMTQTPSSVSPAVGGTVTIKCQASQNIYSNLAWYQQKPGQRPKLLVYDASNLEYGVPSRFKGSGSGTEYTLTISDLESADAANYYCQCTYYGNNYITFGGGTEVVVR
notes: V regions on human Ig constant parts; also called AB27_108
Turning to B13, in assay [1], the “IL-8, cross-linked” value is 1.08 abs. corr and the “IL-8 [abs. corr.]” value amounted to 0.063 abs. corr. Also, in assay [2], the “ELISA [abs. corr.]” value was determined as 3.16 abs. corr. Besides, in assay [3], the “Cellular binding assay [RFU]” value was found to be 304 RFU.

B14: P018.S.06.A.F04 (antibody, V domains shown)
VH: QQQLEESGGGLVKPEGSLTLTCKASGFTLSSYLMCWVRQAPGKGLELIGCIGTYSGATYYGSWAKDRFTIAKTSSTTVTLQMTSLTAADTATYFCARDYNFALWGPGTLVTVSS
VL: AIVMTQTPSSKSVPVGDTVTINCQASESVYNNNYLSWFQQKPGQPPKLLIYGASTLTSGVPSRFKGSGSGTQFTLTISDVVSDDAATYYCAGYKSSWTDGNAFGGGTEVVVK
notes: V regions on human Ig constant parts; also called AB27_109
As to B14, in assay [1], the “IL-8, cross-linked” value is 1.16 abs. corr and the “IL-8 [abs. corr.]” value turned out to be 0.678 abs. corr. Further, in assay [2], the “ELISA [abs. corr.]” value is 3.18 abs. corr. Further, in assay [3], the “Cellular binding assay [RFU]” value stood at 338 RFU.
